Reference: patent publication US20250296995A1 (GlaxoSmithKline, published 2025)

Experiments:
[1] = biological target: T1, recombinant Plasmodium falciparum circumsporozoite protein (CSP) (Plasmodium falciparum, UniProt Q7K740 21-375); assay: SPR, recombinant CSP
T1 construct: also called recombinant CSP

[2] = biological target: T1, recombinant Plasmodium falciparum …; assay: binding affinity column of the in vivo table (SPR, CSP)

T1 sequence (Q7K740 21-375 limits assumed): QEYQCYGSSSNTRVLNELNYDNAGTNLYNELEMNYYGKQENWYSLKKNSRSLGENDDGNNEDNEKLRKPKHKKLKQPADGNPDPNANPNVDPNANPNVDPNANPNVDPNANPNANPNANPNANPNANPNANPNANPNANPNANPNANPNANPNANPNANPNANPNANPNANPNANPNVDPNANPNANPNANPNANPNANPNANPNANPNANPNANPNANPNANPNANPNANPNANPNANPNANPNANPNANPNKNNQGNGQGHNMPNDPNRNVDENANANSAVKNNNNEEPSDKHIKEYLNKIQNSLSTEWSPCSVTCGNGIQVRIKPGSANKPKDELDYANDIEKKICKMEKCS

Binder	Kd [1]	koff [1]	kon [1]	Kd [2]
AB001458 (antibody, V domains shown) VH: EVQLVESGGGLVQPGRSLRLSCTASGFTFGDYAMSWFRQAPGKGLEWVSFIRSKTYGGSTEYAASVKGRFTISRDDSKSIAYLQMHSLKTEDTAFYYCTRVSAAAGVGDYWGQGTLVTVSS VL: EIVMTQSPATLSVSPGERATLSCRASQSVGSNLAWYQQKPGQAPRLLIYGASTRATGLPARFSGSGSATEFTLTISSLQSEDFAVYYCQQYNTWWTFGQGTKVEIK	0.921 nM	0.00171 s⁻¹	1.86e+06 M⁻¹ s⁻¹	0.921 nM
AB-000325 (antibody, V domains shown) VH: QVQLVESGGGVVQPGRSLRLSCAASRFPFKNYGMHWVRQAPGKGLEWVALIWFDGSNKFYVDSVEGRFTISRDNSNNMLYLEMNSLRADDTAVYYCARAGRYDDSGYLDYWGQGTLVTVSS VL: EIVMTQSPATLSVSPGERATLSCRASQSVGSKLAWYQHKPGQAPRLLIYGASTRATGIPARFSGSGSGTEFTLTVSSLQSEDFAVYYCQQYNHWYTFGQGTKLEIK	0.0529 nM	0.00215 s⁻¹	4.07e+07 M⁻¹ s⁻¹	
AB001558 (antibody, V domains shown) VH: QVQLVESGGGVVQPGRSLRLSCAASGFTFSSYGMHWVRQAPGKGLEWVAVIWYDGNNKYYVDSVKGRFTISRDNSKNTLYLQMNSLRAEDTAVYYCARDHDADYVEKWGAFDLWGQGTMVTVSS VL: EIVMTQSPATLSVSPGERATLSCRASQSVSSNLAWYQQKPGQAPRLLIYGASARATGIPARFSGSGSGTEFTLTISSLQSEDFAVYYCQQYNNGRTFGQGTKVEIT	40.2 nM	0.000797 s⁻¹	19800 M⁻¹ s⁻¹	
AB001455 (antibody, V domains shown) VH: QVQLVESGGGVVQPGRSLRLSCAASGFTFSNYGMHWVRQAPGKGLEWVAIIWYDGSSKYYADSVRGRFTISRDNSKNTLFLQMNSLRAEDTAVYYCARDDYYSSAYNHLGYWGQGTLVTVSS VL: not shown	1.37 nM	0.000831 s⁻¹	608000 M⁻¹ s⁻¹	1.37 nM
AB-000338 LS (antibody, V domains shown) VH: QVQLVESGGGVVQPGRSLRLSCAASGFSFSTYGMHWIRQVPGKGLEWVAIIWHDGSKEFYADSVKGRFTISRDNSKKKLYLQMNSLRAEDTAIYYCVKDDFDSSGHSYFHYWGQGTLVTVSS VL: GVVMTQSPLSLPVTLGQPASISCRSSQSLVHSDGNTYVHWFQQRPGQSPRRLIYKVSNRDSGVPDRFSGSGSGTDFTLKISRVEAEDVGVYYCMQGTQWWTFGQGTKVEIK	0.13 nM	0.00147 s⁻¹	1.13e+07 M⁻¹ s⁻¹	0.13 nM
AB001533 (antibody, V domains shown) VH: QVQLVESGGGVVQPGRSLRLSCAASGFTFNSYGMHWVRQAPGKGLEWVALISFDGTNKFYADSVKGRFTISRDNSKNTLYLQMNSLRAEDTALYHCATDSLFYYDFHLFDYWGQGTLVTVSS VL: DIVLTQTPLSSPVTLGQPASISCRSSQSLVYSDGNTYLNWLQQRPGQPPRLLIYKISNRFSGVPDRFSGSGAGTDFTLKISRVEAEDVGVYYCMQATQLYTFGQGTKLEIK	0.248 nM	0.000669 s⁻¹	2.69e+06 M⁻¹ s⁻¹	0.248 nM
AB-000231 (antibody, V domains shown) VH: QVHLVESGGGVVQPGRSLRLSCAASGFTFRNYGIHWVRQAPGKGLEWVAVIWYDGSREFYADSVEGRFTVSRDNSKNTVFLQMNSLRVDDTAVYYCARAGYSDTSGYGDHWGQGTLVSVSS VL: QSVLTQPPSVSGAPGQRVTISCTGGSSNIGAGYDVHWYQQLPGTAPKLLISHNNNRPSGVPDRFSGSKSGTSASLVIAGLQAEDEADYYCQSYDRRLSSSWVFGGGTRLTVLS	0.328 nM	0.00142 s⁻¹	4.34e+06 M⁻¹ s⁻¹	
AB-000391 (antibody, V domains shown) VH: EVQLVQSGGGLVQPGGSLRLSCVASGFTLSSYEMNWVRQAPGKGLEWVSFISSSGSKKRYADSVKGRFTVSRDNAKNSLSLQMNSLRAEDTAVYYCARDHSTSDREYGLDVWGQGATVTVSS VL: DVVMTQSPLSLPVTLGQPASISCRSGQSLLYSDGNTYLYWFQQRPGQSPRRLIYKVSNRDPGVPERFSGSGSGTDFTLKISRVEAEDVGIYFCLQGTHWPYTFGRGTKLEIK	0.616 nM	0.000535 s⁻¹	869000 M⁻¹ s⁻¹	
AB-000376 (antibody, V domains shown) VH: QVQLVESGGGVVQPGRSLRLSCTASGFTFSNYGMHWVRQAPGRALEWVAIIWHDGSNKYYADSVKGRFTISRDNSKNTLYLQMNNVRVEDTAVYHCAKVGGFGELYEAFDFWGQGTLVTVSS VL: DIQMTQSPSTLSASVGDRVTITCRASHSISNWLAWYQQKPGKAPRLLIYKASSLNSGVPSRFSGSASGTEFTLTISSLQPDDFATYFCQQYNAYWTFGQGTKVEIK	0.201 nM	0.000866 s⁻¹	4.31e+06 M⁻¹ s⁻¹	
AB001396 (antibody, V domains shown) VH: QVQLVESGGGVVQPGRSLRLSCAASGFTFSSYGMHWVRQAPGKGLEWVAIIWYDGSHKYYADSVKGRFTISRDNSKNTLYLQMNSLRAEDTAVYHCARVYQPTYYYDSSRGEAFDIWGQGTMVTVSS VL: DIQMTQSPSTLSASVGDRVTITCRASQSISSWLAWYQQKPGKAPKLLIYKASNLGSGVPSRFSGSGSGTEFTLTISSLQPDDFATYYCQQYNSYWTFGQGTKVEIK	1.47 nM	0.000393 s⁻¹	268000 M⁻¹ s⁻¹	
AB001428 (antibody, V domains shown) VH: QVQLVESGGGVVQPGRSLRLSCVVSGFTFSSYGMHWVRQAPGKGLEWVAIIWYDGSKKYYADSVKGRFTISRDNSKNTLYLQMNSLRAEDTAVYYCARPGDSSGSHGEAFDIWGQGTMVTVSS VL: DIQMTQSPSTLSASVGDRVTITCRPSQSISNWLAWYQQKPGKAPKLLIYKASSLESGVPSRFSGSGSGTEFTLTISGLQPDDFATYYCQQYNTYWTFGQGTKVEIK	1.18 nM	0.00101 s⁻¹	855000 M⁻¹ s⁻¹	1.18 nM
AB001529 (antibody, V domains shown) VH: QVQLVESGGGVVQPGRSLRLSCVASGFSFRSYGMHWVRQAPGKGLEWVAIIWYDGSNKYYAHSVKGRFTISRDNSKNTLYLQMNSLRAEDTAIYYCAKDGGTETTWGNAFDIWGQGTMVTVSS VL: DIQMTQSPSTLSASVGDRVTITCRASQSISSWLAWYQQKPGKAPKLLIYKASSLESGVPSRFSGSGSGTEFTLTINNLQPDDFATYYCQQYNSYWTFGQGTKVEIK	1.64 nM	0.00108 s⁻¹	660000 M⁻¹ s⁻¹	
AB-000327 (antibody, V domains shown) VH: QVQLVESGGGVVQPGRSLRLSCAASRFTFKNYGMHWVRQGPGKGLEWVAVIWYDGSQEYYVDSVRGRFTISRDNSKDTLYLQMNSLRAEDTAVYYCVRDGRYRTSHQTSTGFFDLWGQGTLVTVSS VL: QSMLTQPPSVSGAPGQRVTISCTGSSSNIGADYDVHWYQQLPGTAPKLLIYGNNNRPSGVPDRFSGSKSGTSASLAITGLQPEDEAEYYCQSYDSSLSGSFVFGTGTKVTVL	0.467 nM	0.00143 s⁻¹	3.06e+06 M⁻¹ s⁻¹	0.467 nM
AB-000373 (antibody, V domains shown) VH: QVLLVESGGGVVQPGGSLRLSCTASGFTFKNYGMHWVRQAPGKGLEWVAVIWFDGSNEFYADSVEGRFTISRDNSKNTLYLQTNSLRAEDTAVYYCARSYTSSWLGFDFWGQGTLVTVSS VL: DAVMTQTPLSLSVTPGQPASISCKSGQSLLHSDGKTYLYWYLQKPGQSPQLLIYEVSSRFSGVPDRFSGSGSGTDFTLKISRVEAEDVGVYYCMRGIHPRTFGQGTKVEIK	0.0592 nM	0.00152 s⁻¹	2.58e+07 M⁻¹ s⁻¹	0.0592 nM
AB001554 (antibody, V domains shown) VH: QVQLVESGGGVVQPGRSLRLSCAASGFTFSSYGMHWVRQAPGKGLEWVAVIWYDGSNKYHADSVKGRFTISRDNSKNTLYLQMNNLRSEDTAVYYCAKDETLWFGELSDGFDIWGQGTMVTVSS VL: not shown	2.29 nM	0.000716 s⁻¹	313000 M⁻¹ s⁻¹	
AB-000394 (antibody, V domains shown) VH: QAQPVESGGGVVQPGKSLRLSCAASGFTFRNFGMHWVRQAPGKGLEWVAVIWHDGSNQFYADSVEGRFTISRDNSKNTLYLQMDSLRVEDTAMYYCARDRGYSGSWGYFDHWGQGTLVTVSS VL: EIVLTQSPATLSLSPGERATLSCRASQSISDYLAWYQQKPGQAPRLLIYDASFRATGIPARFSGSGSGTDFTLTISSLEPEDFAVYYCQQRSIGFTFGPGTKVDIK	0.105 nM	0.00156 s⁻¹	1.48e+07 M⁻¹ s⁻¹	0.105 nM
AB-001545 (antibody, V domains shown) VH: QVQLVESGGGVVQPGRSLRLSCAASGFTFSSYGMHWVRQAPGKGLEWVAVIWYDGSNKYYADSVKGRFTISRDNSKNTLYLQMNSLRAEDTAVYYCARDLDYSNHNWFDPWGQGTLVTVSS VL: EIVLTQSPATLSLSPGERATLSCRASQSVSSYLAWYQQKPGQAPRLLIYDASNRATGIPARFSGSGSGTDFTLTISSLEPEDFAVYYCQQRSNWFTFGQGTRLEIK	4.96 nM	0.000442 s⁻¹	89000 M⁻¹ s⁻¹	
AB001511 (antibody, V domains shown) VH: QVQLVESGGGVVQPGRSLRLSCAASGFTFSSYGMHWVRQAPGKGLEWVAIIWYDGSNKYYADSVKGRFTISRDNSKNTLYLQMNSLRAEDTAVYYCARDTDDYYDAHTMDVWGQGTTVTVSS VL: not shown	2.03 nM	0.000525 s⁻¹	259000 M⁻¹ s⁻¹	
AB001578 (antibody, V domains shown) VH: QVQLVESGGGVVQPGRSLRLSCAASGFSFSNYGMHWVRQAPGKGLEWVAIIWYDGSNKYYADSVKGRFTISRDNSKNTLYLQMNSLRAEDTAVYYCARDGTIWDDSRGYILDYWGQGTLVTVSS VL: EIVLTQSPATLSLSPGERATLSCRASQGVSSYLAWYQQKPGQAPRLLIYDASNRATGIPARFSGSGSGTDFTLTISSLEPEDFAVYYCQQRSNWPPTFGPGTKVDIK	2.64 nM	0.000977 s⁻¹	369000 M⁻¹ s⁻¹	
AB001472 (antibody, V domains shown) VH: QVQLVESGGGVVQPGRSLRLSCAASGFTFSSYGMHWVRQAPGKGLEWVAVIWYDGSNKYYADSVKGRFTISRDNSQNTLFLQMNSLRAEDTAVYYCARVGEYSSSPDWGAAFDIWGQGTMVTVSS VL: not shown	2.11 nM	0.000518 s⁻¹	246000 M⁻¹ s⁻¹	2.11 nM
